Measured values reported in IntAct's records for PubMed 31324769.

Key:
mon2_human MON2 = mon2_human MON2 (UniProt Q7Z3U7)
klc2_human KLC2 = klc2_human KLC2 (UniProt Q9H0B6)
Sequence of klc2_human KLC2 (Q9H0B6 whole entry): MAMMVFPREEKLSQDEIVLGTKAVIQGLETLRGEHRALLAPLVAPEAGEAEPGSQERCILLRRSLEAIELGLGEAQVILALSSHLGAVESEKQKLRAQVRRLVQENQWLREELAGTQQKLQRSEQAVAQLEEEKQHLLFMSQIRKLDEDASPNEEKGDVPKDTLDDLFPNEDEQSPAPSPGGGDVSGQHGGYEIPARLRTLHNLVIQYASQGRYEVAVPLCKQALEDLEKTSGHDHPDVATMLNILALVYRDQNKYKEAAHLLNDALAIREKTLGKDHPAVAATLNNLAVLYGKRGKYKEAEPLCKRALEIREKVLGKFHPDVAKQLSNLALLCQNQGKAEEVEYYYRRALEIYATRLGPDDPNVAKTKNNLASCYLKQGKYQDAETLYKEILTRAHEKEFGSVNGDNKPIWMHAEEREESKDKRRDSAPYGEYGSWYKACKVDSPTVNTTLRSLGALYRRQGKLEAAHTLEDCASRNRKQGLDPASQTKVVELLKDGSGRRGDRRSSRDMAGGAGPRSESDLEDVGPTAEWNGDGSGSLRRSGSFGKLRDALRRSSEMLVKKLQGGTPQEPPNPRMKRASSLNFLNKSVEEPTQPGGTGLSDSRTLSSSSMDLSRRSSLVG

Sequence of mon2_human MON2 (Q7Z3U7 whole entry): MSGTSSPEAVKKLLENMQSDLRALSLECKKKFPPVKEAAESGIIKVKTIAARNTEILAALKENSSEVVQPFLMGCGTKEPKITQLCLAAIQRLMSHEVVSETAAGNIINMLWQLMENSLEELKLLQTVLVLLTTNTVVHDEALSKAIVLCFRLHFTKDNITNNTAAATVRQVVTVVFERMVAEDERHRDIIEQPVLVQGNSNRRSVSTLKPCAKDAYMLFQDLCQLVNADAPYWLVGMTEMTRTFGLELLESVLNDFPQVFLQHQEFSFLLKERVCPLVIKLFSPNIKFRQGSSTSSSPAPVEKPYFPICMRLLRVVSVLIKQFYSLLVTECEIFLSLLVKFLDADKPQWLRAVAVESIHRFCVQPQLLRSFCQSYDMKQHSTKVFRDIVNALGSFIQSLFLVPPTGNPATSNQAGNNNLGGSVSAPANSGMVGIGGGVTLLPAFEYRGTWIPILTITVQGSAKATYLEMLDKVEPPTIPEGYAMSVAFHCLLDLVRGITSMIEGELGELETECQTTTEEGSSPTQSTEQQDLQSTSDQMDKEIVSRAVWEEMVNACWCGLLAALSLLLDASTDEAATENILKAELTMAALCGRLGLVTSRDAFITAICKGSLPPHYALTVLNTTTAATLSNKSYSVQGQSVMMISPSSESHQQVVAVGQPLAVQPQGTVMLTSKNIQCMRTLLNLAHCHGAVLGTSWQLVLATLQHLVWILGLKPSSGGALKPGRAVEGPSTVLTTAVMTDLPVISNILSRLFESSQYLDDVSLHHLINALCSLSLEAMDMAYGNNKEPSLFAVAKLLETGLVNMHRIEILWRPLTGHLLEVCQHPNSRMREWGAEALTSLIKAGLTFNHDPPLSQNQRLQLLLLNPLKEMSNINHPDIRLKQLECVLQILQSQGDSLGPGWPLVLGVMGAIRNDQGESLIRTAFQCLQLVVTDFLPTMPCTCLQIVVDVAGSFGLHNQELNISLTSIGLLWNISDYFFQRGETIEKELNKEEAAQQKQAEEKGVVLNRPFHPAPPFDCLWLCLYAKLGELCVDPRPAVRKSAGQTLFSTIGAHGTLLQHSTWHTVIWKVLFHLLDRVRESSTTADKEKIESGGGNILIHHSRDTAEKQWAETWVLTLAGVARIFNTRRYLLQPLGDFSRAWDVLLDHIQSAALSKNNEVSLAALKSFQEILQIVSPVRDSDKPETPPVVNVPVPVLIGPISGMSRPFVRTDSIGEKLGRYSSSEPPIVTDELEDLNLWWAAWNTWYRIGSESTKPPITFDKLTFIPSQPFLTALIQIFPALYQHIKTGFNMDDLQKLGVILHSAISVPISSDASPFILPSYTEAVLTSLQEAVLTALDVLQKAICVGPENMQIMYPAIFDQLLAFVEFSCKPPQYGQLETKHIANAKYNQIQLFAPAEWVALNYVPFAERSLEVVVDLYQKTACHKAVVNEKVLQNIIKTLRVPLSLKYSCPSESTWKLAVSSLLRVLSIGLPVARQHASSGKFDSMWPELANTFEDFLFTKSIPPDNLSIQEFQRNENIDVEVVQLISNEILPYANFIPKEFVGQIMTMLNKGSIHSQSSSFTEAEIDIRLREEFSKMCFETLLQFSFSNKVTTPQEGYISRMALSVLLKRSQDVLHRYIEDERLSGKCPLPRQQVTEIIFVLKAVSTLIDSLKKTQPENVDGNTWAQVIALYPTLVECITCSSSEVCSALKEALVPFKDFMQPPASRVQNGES

effect of a mutation on the interaction (mon2_human MON2) | effect of a mutation on the interaction (klc2_human KLC2) | Substance
with no effect |  | Protein DOP1A (Homo sapiens), Q5JWR5 L2178A;K2179A;R2180A;L2181A
 | disrupting interaction strength | Protein DOP1A (Homo sapiens), Q5JWR5 W34A
 | disrupting interaction strength | Protein DOP1A (Homo sapiens), Q5JWR5 W186A
